Test results taken from patent US20080213812.

Test system: Site C binding proteins, HeLa nuclear fraction (HA pool; LBP-1b and LBP-1c/LSF identified by MS) (Homo sapiens)
Assay: pulldown

Sequence	binding signal (fmol shifted per ug protein) (equivalent OBC column fraction, 6,300 units and 103 ug, four fold less Site C EMSA activity recovered than from Site C column)	binding signal (fmol shifted per ug protein) (oligo affinity column fraction, 25,332 units and 36.7 ug protein, activity assayed by Site C EMSA)
TCGCGGCGAGAGTTTCAGGCAGCGCTGCGT (double strand) [OBC oligo]	61.2	–
TCGCGGCGCGAGTTTCAGGCAGCGCTGCGT (double strand) [Site C oligo (hTERT promoter)]	–	690
